This note sets out measurements from the supplement of paper PMC10567573.

B1: ZNF449 (parent)
chain: EPHKCPECGKRFLRSSDLYRHQRL
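Further: lentivirally expressed fusions sorted by FACS into six bins by GFP to DsRed ratio, PSI derived from sequencing read proportions per bin multiplied by bin number.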

In this data set the parent is B1. As to the kind of experiment: protein stability index of a GFP-peptide fusion (GPS, HEK-293T) (PSI 1-6); higher = more stable. To be noted: c terminus: a fixed tail appended.
As to EPHKCPECGKRFLMSSDLYRHQRL [R14M], the protein stability index is 3.61.

With EPHKCPECGKRFLKSSDLYRHQRL [R14K], the protein stability index turned out to be 4.11. Consider EPHKCPECGKRFLTSSDLYRHQRL [R14T], for which the protein stability index amounted to 4.61. The same measure for EPHKCPECGKRFLPSSDLYRHQRL [R14P]: 2.2; for EPHKCPECGKRFLESSDLYRHQRL [R14E]: 3.84; for EPHKCPECGKRFLWSSDLYRHQRL [R14W]: 2.75.

EPHKCPECGKRFLVSSDLYRHQRL [R14V]: the protein stability index came out at 3.2. Consider EPHKCPECGKRFLFSSDLYRHQRL [R14F], for which the protein stability index came to 3.76.

As to EPHKCPECGKRFLQSSDLYRHQRL [R14Q], the protein stability index was 3.36.

For the variant EPHKCPECGKRFLDSSDLYRHQRL [R14D], the protein stability index was 4.29. The same measure for EPHKCPECGKRFLCSSDLYRHQRL [R14C]: 3.86; for EPHKCPECGKRFLNSSDLYRHQRL [R14N]: 4.78; for EPHKCPECGKRFLYSSDLYRHQRL [R14Y]: 3.59. The same measure for EPHKCPECGKRFLGSSDLYRHQRL [R14G]: 2.33; for EPHKCPECGKRFLSSSDLYRHQRL [R14S]: 4.61. The same measure for EPHKCPECGKRFLLSSDLYRHQRL [R14L]: 3.51; for EPHKCPECGKRFLHSSDLYRHQRL [R14H]: 3.97; for EPHKCPECGKRFLISSDLYRHQRL [R14I]: 2.95. Regarding EPHKCPECGKRFLASSDLYRHQRL [R14A], the protein stability index worked out at 3.89.

In the case of EPHKCPECGKRFLRTSDLYRHQRL [S15T], the protein stability index came out at 3.9.

As to EPHKCPECGKRFLRNSDLYRHQRL [S15N], the protein stability index stood at 3.51.

For the variant EPHKCPECGKRFLRKSDLYRHQRL [S15K], the protein stability index amounted to 4.27.

With EPHKCPECGKRFLRFSDLYRHQRL [S15F], the protein stability index was 3.51.

In the case of EPHKCPECGKRFLRISDLYRHQRL [S15I], the protein stability index turned out to be 3.27. For EPHKCPECGKRFLRRSDLYRHQRL [S15R] the value was 3.53; for EPHKCPECGKRFLRQSDLYRHQRL [S15Q], 4.11. For EPHKCPECGKRFLRMSDLYRHQRL [S15M] the value was 3.98. The same measure for EPHKCPECGKRFLRHSDLYRHQRL [S15H]: 3.64; for EPHKCPECGKRFLRCSDLYRHQRL [S15C]: 3.42. With EPHKCPECGKRFLRASDLYRHQRL [S15A], the protein stability index is 4.16. The same measure for EPHKCPECGKRFLRGSDLYRHQRL [S15G]: 3.53; for EPHKCPECGKRFLRLSDLYRHQRL [S15L]: 3.86; for EPHKCPECGKRFLRPSDLYRHQRL [S15P]: 3.25.

Turning to EPHKCPECGKRFLRESDLYRHQRL [S15E], the protein stability index was 4.54. For EPHKCPECGKRFLRDSDLYRHQRL [S15D] the value was 3.81; for EPHKCPECGWRFLRSSDLYRHQRL [K10W], 2.13; for EPHKCPECGYRFLRSSDLYRHQRL [K10Y], 2.5. The same measure for EPHKCPECGKRFPRSSDLYRHQRL [L13P]: 3.74; for EPHKCPECGKRFRRSSDLYRHQRL [L13R]: 3.99. The same measure for EPHKCPECGKRFTRSSDLYRHQRL [L13T]: 4.46; for EPHKCPECGKRFNRSSDLYRHQRL [L13N]: 4.08. With EPHKCPECGKRFSRSSDLYRHQRL [L13S], the protein stability index is 3.92. For EPHKCPECGKRFGRSSDLYRHQRL [L13G] the value was 3.88.

For EPHKCPECGKRFARSSDLYRHQRL [L13A], the protein stability index came to 4. For EPHKCPECGKRFYRSSDLYRHQRL [L13Y] the value was 4.09. For EPHKCPECGKRFCRSSDLYRHQRL [L13C] the value was 4.05; for EPHKCPECGKRFVRSSDLYRHQRL [L13V], 4.32. The same measure for EPHKCPECGKRFWRSSDLYRHQRL [L13W]: 3.55; for EPHKCPECGKRFERSSDLYRHQRL [L13E]: 4.78; for EPHKCPECGKRFKRSSDLYRHQRL [L13K]: 4.5. In the case of EPHKCPECGKRFMRSSDLYRHQRL [L13M], the protein stability index turned out to be 4.48. The same measure for EPHKCPECGKRFDRSSDLYRHQRL [L13D]: 4.82; for EPHKCPECGKRFQRSSDLYRHQRL [L13Q]: 4.66; for EPHKCPECGKRFIRSSDLYRHQRL [L13I]: 3.5.

With EPHKCPECGKRFHRSSDLYRHQRL [L13H], the protein stability index stood at 3.85. For EPHKCPECGKRFFRSSDLYRHQRL [L13F] the value was 3.35; for EPHKCPECGKRLLRSSDLYRHQRL [F12L], 2.54; for EPHKCPECGKRMLRSSDLYRHQRL [F12M], 2.45. Take EPHKCPECGKRHLRSSDLYRHQRL [F12H]: the protein stability index was found to be 3.73.

On to EPHKCPECGKRILRSSDLYRHQRL [F12I], for which the protein stability index came out at 2.1. For EPHKCPECGKRELRSSDLYRHQRL [F12E] the value was 2.34; for EPHKCPECGKRTLRSSDLYRHQRL [F12T], 2.32; for EPHKCPECGKRSLRSSDLYRHQRL [F12S], 1.86.

Regarding EPHKCPECGKRKLRSSDLYRHQRL [F12K], the protein stability index was 2.88.

Turning to EPHKCPECGKRPLRSSDLYRHQRL [F12P], the protein stability index turned out to be 2.51. For EPHKCPECGKRDLRSSDLYRHQRL [F12D] the value was 2.13. EPHKCPECGKRCLRSSDLYRHQRL [F12C]: the protein stability index was determined as 1.67.

As to EPHKCPECGKRQLRSSDLYRHQRL [F12Q], the protein stability index turned out to be 2.03.

As to EPHKCPECGKRRLRSSDLYRHQRL [F12R], the protein stability index worked out at 2.15. For EPHKCPECGKRVLRSSDLYRHQRL [F12V] the value was 1.95; for EPHKCPECGKRALRSSDLYRHQRL [F12A], 1.86; for EPHKCPECGKRGLRSSDLYRHQRL [F12G], 2.12. For EPHKCPECGKRWLRSSDLYRHQRL [F12W] the value was 1.93; for EPHKCPECGKRNLRSSDLYRHQRL [F12N], 2.06; for EPHKCPECGKRYLRSSDLYRHQRL [F12Y], 2.72. On to EPHKCPECGKLFLRSSDLYRHQRL [R11L], for which the protein stability index was found to be 4.57. As for EPHKCPECGKYFLRSSDLYRHQRL [R11Y], the protein stability index stood at 4.39.

With EPHKCPECGKMFLRSSDLYRHQRL [R11M], the protein stability index was 4.26. The same measure for EPHKCPECGKEFLRSSDLYRHQRL [R11E]: 4.84; for EPHKCPECGKGFLRSSDLYRHQRL [R11G]: 4; for EPHKCPECGKQFLRSSDLYRHQRL [R11Q]: 4.44.

Regarding EPHKCPECGKCFLRSSDLYRHQRL [R11C], the protein stability index is 4.31.

For EPHKCPECGKWFLRSSDLYRHQRL [R11W], the protein stability index worked out at 4.26.

For EPHKCPECGKHFLRSSDLYRHQRL [R11H], the protein stability index stood at 4.07.

In the case of EPHKCPECGKSFLRSSDLYRHQRL [R11S], the protein stability index came out at 5.13. For EPHKCPECGKPFLRSSDLYRHQRL [R11P] the value was 3.68; for EPHKCPECGKVFLRSSDLYRHQRL [R11V], 4.57; for EPHKCPECGKAFLRSSDLYRHQRL [R11A], 4.71. For EPHKCPECGKFFLRSSDLYRHQRL [R11F] the value was 4.41.

Take EPHKCPECGKNFLRSSDLYRHQRL [R11N]: the protein stability index came out at 4.24. For the variant EPHKCPECGKKFLRSSDLYRHQRL [R11K], the protein stability index was 4.16. With EPHKCPECGKDFLRSSDLYRHQRL [R11D], the protein stability index came to 4.27.

With EPHKCPECGKIFLRSSDLYRHQRL [R11I], the protein stability index is 4.63.

Consider EPHKCPECGKTFLRSSDLYRHQRL [R11T], for which the protein stability index amounted to 5.01.
